Results taken from US6984501.

Molecular target: human Kv2.1 (human) (UniProt Q14721)
Test: cell-based or functional assay

- V0.5 of the activation voltage curve (Boltzmann fit of G/Gmax), whole-cell patch clamp on CHO cells: 10.8 mV
- inactivation time constant of the outward current, whole-cell patch clamp on CHO cells: 7.17 ms
Substance: human Kv2.1 (from UniProt Q14721 1-858)
